Experimental findings from article PMC4027171 are described below.

This assay addresses human EME2 (His-EME2) (human). Put plainly: co-purification of co-expressed subunits.

human EME2 (His-EME2) (human), sequence (A4GXA9 whole entry): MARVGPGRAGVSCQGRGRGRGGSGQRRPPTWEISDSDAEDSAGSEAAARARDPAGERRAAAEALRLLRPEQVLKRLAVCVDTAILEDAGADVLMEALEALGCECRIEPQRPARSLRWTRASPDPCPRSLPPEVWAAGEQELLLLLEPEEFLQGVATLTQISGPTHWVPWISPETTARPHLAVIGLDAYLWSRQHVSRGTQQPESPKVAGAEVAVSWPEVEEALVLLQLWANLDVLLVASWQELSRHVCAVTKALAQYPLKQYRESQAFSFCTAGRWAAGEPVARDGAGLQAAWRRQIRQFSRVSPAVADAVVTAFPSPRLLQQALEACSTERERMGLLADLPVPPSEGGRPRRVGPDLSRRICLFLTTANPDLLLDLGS

B1: human MUS81 (enzyme)
chain: MAAPVRLGRKRPLPACPNPLFVRWLTEWRDEATRSRRRTRFVFQKALRSLRRYPLPLRSGKEAKILQHFGDGLCRMLDERLQRHRTSGGDHAPDSPSGENSPAPQGRLAEVQDSSMPVPAQPKAGGSGSYWPARHSGARVILLVLYREHLNPNGHHFLTKEELLQRCAQKSPRVAPGSARPWPALRSLLHRNLVLRTHQPARYSLTPEGLELAQKLAESEGLSLLNVGIGPKEPPGEETAVPGAASAELASEAGVQQQPLELRPGEYRVLLCVDIGETRGGGHRPELLRELQRLHVTHTVRKLHVGDFVWVAQETNPRDPANPGELVLDHIVERKRLDDLCSSIIDGRFREQKFRLKRCGLERRVYLVEEHGSVHNLSLPESTLLQAVTNTQVIDGFFVKRTADIKESAAYLALLTRGLQRLYQGHTLRSRPWGTPGNPESGAMTSPNPLCSLLTFSDFNAGAIKNKAQSVREVFARQLMQVRGVSGEKAAALVDRYSTPASLLAAYDACATPKEQETLLSTIKCGRLQRNLGPALSRTLSQLYCSYGPLT
The term stoichiometry N denotes the number of molecules, sites or subunits per partner or assembly. Consider B1, for which the stoichiometry N was determined as 1.
